{
  "source": "patent US20230272029A1",
  "about": "“CO-AGONISTS AT GLP-1 AND GIP RECEPTORS SUITABLE FOR ORAL DELIVERY” (Novo Nordisk A/S, priority 2020, published 2023)",
  "molecules": {"B1": {"name": "Compound No. 16 (peptide)", "peptide": "Y[Aib]EGTFTSDYSIYLEK([εLys-εLys-γGlu-C20 diacid])QAAREFINWLLAGGPSSGAPPPS-OH", "modifications": "N-terminus assumed", "SMILES": "CC[C@H](C)[C@H](NC(=O)[C@H](Cc1ccccc1)NC(=O)[C@H](CCC(=O)O)NC(=O)[C@H](CCCNC(=N)N)NC(=O)[C@H](C)NC(=O)[C@H](C)NC(=O)[C@H](CCC(N)=O)NC(=O)[C@H](CCCCNC(=O)[C@@H](N)CCCCNC(=O)[C@@H](N)CCCCNC(=O)CC[C@H](NC(=O)CCCCCCCCCCCCCCCCCCC(=O)O)C(=O)O)NC(=O)[C@H](CCC(=O)O)NC(=O)[C@H](CC(C)C)NC(=O)[C@H](Cc1ccc(O)cc1)NC(=O)[C@@H](NC(=O)[C@H](CO)NC(=O)[C@H](Cc1ccc(O)cc1)NC(=O)[C@H](CC(=O)O)NC(=O)[C@H](CO)NC(=O)[C@@H](NC(=O)[C@H](Cc1ccccc1)NC(=O)[C@@H](NC(=O)CNC(=O)[C@H](CCC(=O)O)NC(=O)C(C)(C)NC(=O)[C@@H](N)Cc1ccc(O)cc1)[C@@H](C)O)[C@@H](C)O)[C@@H](C)CC)C(=O)N[C@@H](CC(N)=O)C(=O)N[C@@H](Cc1c[nH]c2ccccc12)C(=O)N[C@@H](CC(C)C)C(=O)N[C@@H](CC(C)C)C(=O)N[C@@H](C)C(=O)NCC(=O)NCC(=O)N1CCC[C@H]1C(=O)N[C@@H](CO)C(=O)N[C@@H](CO)C(=O)NCC(=O)N[C@@H](C)C(=O)N1CCC[C@H]1C(=O)N1CCC[C@H]1C(=O)N1CCC[C@H]1C(=O)N[C@@H](CO)C(=O)O"}, "B2": {"name": "Compound No. 17 (peptide)", "peptide": "YAEGTFTSDYSIYLEK([εLys-εLys-γGlu-C18 diacid])QAAREFINWLLAGGPSSGAPPPS-OH", "modifications": "N-terminus assumed", "SMILES": "CC[C@H](C)[C@H](NC(=O)[C@H](Cc1ccccc1)NC(=O)[C@H](CCC(=O)O)NC(=O)[C@H](CCCNC(=N)N)NC(=O)[C@H](C)NC(=O)[C@H](C)NC(=O)[C@H](CCC(N)=O)NC(=O)[C@H](CCCCNC(=O)[C@@H](N)CCCCNC(=O)[C@@H](N)CCCCNC(=O)CC[C@H](NC(=O)CCCCCCCCCCCCCCCCC(=O)O)C(=O)O)NC(=O)[C@H](CCC(=O)O)NC(=O)[C@H](CC(C)C)NC(=O)[C@H](Cc1ccc(O)cc1)NC(=O)[C@@H](NC(=O)[C@H](CO)NC(=O)[C@H](Cc1ccc(O)cc1)NC(=O)[C@H](CC(=O)O)NC(=O)[C@H](CO)NC(=O)[C@@H](NC(=O)[C@H](Cc1ccccc1)NC(=O)[C@@H](NC(=O)CNC(=O)[C@H](CCC(=O)O)NC(=O)[C@H](C)NC(=O)[C@@H](N)Cc1ccc(O)cc1)[C@@H](C)O)[C@@H](C)O)[C@@H](C)CC)C(=O)N[C@@H](CC(N)=O)C(=O)N[C@@H](Cc1c[nH]c2ccccc12)C(=O)N[C@@H](CC(C)C)C(=O)N[C@@H](CC(C)C)C(=O)N[C@@H](C)C(=O)NCC(=O)NCC(=O)N1CCC[C@H]1C(=O)N[C@@H](CO)C(=O)N[C@@H](CO)C(=O)NCC(=O)N[C@@H](C)C(=O)N1CCC[C@H]1C(=O)N1CCC[C@H]1C(=O)N1CCC[C@H]1C(=O)N[C@@H](CO)C(=O)O"}},
  "key": {"[1]": {"assay": "Pharmacokinetic study in dogs after oral dosing of tablets with SNAC", "format": "in vivo, Beagle dogs", "conditions": "dog, in vivo, po", "method": "The purpose of this example is to determine the half-life and plasma exposure in vivo of the compounds of the present invention after p.o. administration to beagle dogs, i.e. the terminal half-life and concentration of test substance that reaches circulation with time. This is done in a pharmacokinetic (PK) study, where these parameters of the compound in question are determined. By terminal half-life is generally meant the period of time it takes to halve a certain plasma concentration, measured after the initial distribution phase.\nThe amount of SNAC in the tablet composition was 100-300 mg, the amount of magnesium stearate in the tablet composition was 7.7 mg, and the target amount of each test substance in the tablet composition was 3-4 mg.\nMale beagle dogs, 1-7 years of age and weighing 9-17 kg during the study period, were included in the study. The dogs were dosed in a fasting state. The dogs were group housed in pens (12 hours light: 12 hours dark), and fed individually and restrictedly once daily with Royal Canin Medium Adult dog food (Royal Canin Products, China Branch, or Brogaarden A/S, Denmark). The dogs were used for repeated PK studies with a suitable wash-out period between successive dosing. An appropriate acclimatization period was given prior to initiation of the first PK study. All handling, dosing, and blood sampling of the animals were performed by trained and skilled staff. Before the studies, the dogs were fasted overnight and from 0 to 4 hours after dosing. The dogs were restricted to water 1 hour before dosing until 4 hours after dosing, but otherwise had ad libitum access to water during the whole period.\nThe compositions were administered by a single oral dosing to the dogs in groups of 6-8 dogs. […] The mouth was then closed, and 10 mL of tap water was given by syringe or gavage to facilitate swallowing of the tablet.\nFor each blood sample time point, approximately 0.8 mL of whole blood was collected in a 1.5 mL EDTA-coated tube, which was gently turned to mix the sample with EDTA. Blood samples were collected in EDTA buffer (8 mM) and then centrifuged at 4° C. and 2000g for 10 minutes. Plasma was pipetted into Micronic tubes on dry ice, and kept at −20° C. or lower until analysis. Blood samples were taken as appropriate, for example from a venflon in the cephalic vein in the front leg for the first 2 hours and then with syringe from the jugular vein for the rest of the time points. The first few drops were allowed to drain from the venflon to avoid heparin saline from the venflon in the sample.\nAll blood samples were collected into test tubes containing EDTA for stabilisation and kept on ice until centrifugation. Plasma was separated from whole blood by centrifugation and the plasma was stored at −20° C. or lower until analysis.\nThe plasma was analysed for test substance using LC-MS (Liquid Chromatography-Mass Spectrometry) as known to the person skilled in the art. […] RP-HPLC separation was achieved using a linear gradient of 1:1 acetonitrile/methanol in 1% aqueous formic acid using either: a Phenomenex Onyx Monolithic C18 column (50×2.0 mm) and a flow rate of 0.8 mL/min at 30° C.; or an Agilent Poroshell 120 SB-C18 column (50×2.1 mm, 2.7 μm) at a flow rate of 0.4 mL/min at 60° C. The mass spectrometer was operated in either positive ionization SIM mode or positive ionization PRM mode.\nFor each individual animal, a plasma concentration-time profile was analysed by a non-compartmental model in Pharsight Phoenix WinNonLin ver. 6.4 software or other relevant software for PK analysis, and the resulting terminal half-life (t1/2), maximum plasma concentration per dose (Cmax/D), time for maximum plasma concentration (tmax), and area under the curve to infinity per dose (AUC/D) were determined. Summary statistics of pharmacokinetic results were presented as median (for tmax), harmonic mean ([…]), or arithmetic mean (Cmax, AUC)."}, "human GLP-1 receptor": {"biological_target": "human GLP-1 receptor (human, UniProt P43220 24-463)", "assay": "cell-based or functional assay"}, "human GIP receptor": {"biological_target": "T1, human GIP receptor (human, UniProt P48546 22-466)", "T1 sequence (looked up)": "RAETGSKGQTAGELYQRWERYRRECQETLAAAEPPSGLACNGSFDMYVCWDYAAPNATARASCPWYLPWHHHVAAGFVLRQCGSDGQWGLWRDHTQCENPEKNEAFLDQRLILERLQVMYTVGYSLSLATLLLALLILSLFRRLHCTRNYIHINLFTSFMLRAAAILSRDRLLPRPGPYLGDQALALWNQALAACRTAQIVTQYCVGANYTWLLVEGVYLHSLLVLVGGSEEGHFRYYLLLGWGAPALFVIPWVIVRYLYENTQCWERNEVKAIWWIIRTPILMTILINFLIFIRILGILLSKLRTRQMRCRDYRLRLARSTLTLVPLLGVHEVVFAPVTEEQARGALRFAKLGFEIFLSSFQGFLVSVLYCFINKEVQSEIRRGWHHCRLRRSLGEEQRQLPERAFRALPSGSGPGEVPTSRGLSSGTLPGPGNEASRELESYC", "assay": "cell-based or functional assay"}},
  "note": "Starred links: 1 amine or outer side, 2 acyl side, 3 side chain; linkers in the order of their positions; H or OH if unused. Non-standard residues stand in square brackets, D forms with d. Residues, ends and D or L forms follow the SMILES beside them. Groups on a side chain read outwards from the residue. No end group written: not given here. *: point of attachment. C20 diacid = O=C(O)CCCCCCCCCCCCCCCCCCC(=O)*; C18 diacid = O=C(O)CCCCCCCCCCCCCCCCC(=O)*; γGlu = O=C(O)[C@H](CCC(=O)[*:2])N[*:1]; εLys = N[C@@H](CCCCN[*:1])C(=O)[*:2]; Aib = CC(C)(N)C(=O)O",
  "data": [
    {"molecule": "CC[C@H](C)[C@H](NC(=O)[C@H](Cc1ccccc1)NC(=O)[C@H](CCC(=O)O)NC(=O)[C@H](Cc1c[nH]cn1)NC(=O)[C@H](C)NC(=O)[C@H](C)NC(=O)[C@H](CCC(N)=O)NC(=O)[C@H](CCCCNC(=O)[C@@H](N)CCCCNC(=O)[C@@H](N)CCCCNC(=O)CC[C@H](NC(=O)CCCCCCCCCCCCCCCCC(=O)O)C(=O)O)NC(=O)[C@H](CCC(=O)O)NC(=O)[C@H](CC(C)C)NC(=O)[C@H](CC(C)C)NC(=O)[C@@H](NC(=O)[C@H](CO)NC(=O)[C@H](Cc1ccc(O)cc1)NC(=O)[C@H](CC(=O)O)NC(=O)[C@H](CO)NC(=O)[C@@H](NC(=O)[C@H](Cc1ccccc1)NC(=O)[C@@H](NC(=O)CNC(=O)[C@H](CCC(=O)O)NC(=O)C(C)(C)NC(=O)[C@@H](N)Cc1ccc(O)cc1)[C@@H](C)O)[C@@H](C)O)[C@@H](C)CC)C(=O)N[C@@H](CCC(=O)O)C(=O)N[C@@H](Cc1c[nH]c2ccccc12)C(=O)N[C@@H](CC(C)C)C(=O)N[C@@H](CC(C)C)C(=O)N[C@@H](C)C(=O)NCC(=O)NCC(=O)N1CCC[C@H]1C(=O)N[C@@H](CO)C(=O)N[C@@H](CO)C(=O)NCC(=O)N[C@@H](C)C(=O)N1CCC[C@H]1C(=O)N1CCC[C@H]1C(=O)N1CCC[C@H]1C(=O)N[C@@H](CO)C(=O)O", "note": "[Compound No. 30] (H-Y[Aib]EGTFTSDYSILLEK([εLys-εLys-γGlu-C18 diacid])QAAHEFIEWLLAGGPSSGAPPPS-OH)", "values": [
      {"measurement": "AUC/Dose", "setting": "[1]", "result": 6.5, "unit": "kg·h/L"},
      {"measurement": "Cmax/Dose", "setting": "[1]", "result": 0.24, "unit": "kg/L"}
    ]},
    {"molecule": "CC[C@H](C)[C@H](NC(=O)[C@H](Cc1ccccc1)NC(=O)[C@H](CCC(=O)O)NC(=O)[C@H](CCCNC(=N)N)NC(=O)[C@H](C)NC(=O)[C@H](C)NC(=O)[C@H](CCC(N)=O)NC(=O)[C@H](CCCCNC(=O)[C@@H](N)CCCCNC(=O)[C@@H](N)CCCCNC(=O)CC[C@H](NC(=O)CCCCCCCCCCCCCCCCCCC(=O)O)C(=O)O)NC(=O)[C@H](CCC(=O)O)NC(=O)[C@H](CC(C)C)NC(=O)[C@H](Cc1ccc(O)cc1)NC(=O)[C@@H](NC(=O)[C@H](CO)NC(=O)[C@H](Cc1ccc(O)cc1)NC(=O)[C@H](CC(=O)O)NC(=O)[C@H](CO)NC(=O)[C@@H](NC(=O)[C@H](Cc1ccccc1)NC(=O)[C@@H](NC(=O)CNC(=O)[C@H](CCC(=O)O)NC(=O)C(C)(C)NC(=O)[C@@H](N)Cc1ccc(O)cc1)[C@@H](C)O)[C@@H](C)O)[C@@H](C)CC)C(=O)N[C@@H](CC(N)=O)C(=O)N[C@@H](Cc1c[nH]c2ccccc12)C(=O)N[C@@H](CC(C)C)C(=O)N[C@@H](CC(C)C)C(=O)N[C@@H](C)C(=O)NCC(=O)NCC(=O)N1CCC[C@H]1C(=O)N[C@@H](CO)C(=O)N[C@@H](CO)C(=O)NCC(=O)N[C@@H](C)C(=O)N1CCC[C@H]1C(=O)N1CCC[C@H]1C(=O)N1CCC[C@H]1C(=O)N[C@@H](CO)C(=O)O", "note": "[Compound No. 16] (H-Y[Aib]EGTFTSDYSIYLEK([εLys-εLys-γGlu-C20 diacid])QAAREFINWLLAGGPSSGAPPPS-OH)", "values": [
      {"measurement": "AUC/Dose", "setting": "[1]", "result": 8.6, "unit": "kg·h/L"},
      {"measurement": "Cmax/Dose", "setting": "[1]", "result": 0.21, "unit": "kg/L"}
    ]},
    {"molecule": "B1", "values": [
      {"measurement": "hGLP-1R, CRE Luc 0% HSA EC50 (pM)", "setting": "human GLP-1 receptor", "result": 3.1, "unit": "pM"},
      {"measurement": "hGLP-1R, CRE Luc 1% HSA EC50 (pM)", "setting": "human GLP-1 receptor", "result": 321, "unit": "pM"},
      {"measurement": "hGIPR, CRE Luc 0% HSA EC50 (pM)", "setting": "human GIP receptor", "result": 13.4, "unit": "pM"},
      {"measurement": "hGIPR, CRE Luc 1% HSA EC50 (pM)", "setting": "human GIP receptor", "result": 804, "unit": "pM"}
    ]},
    {"molecule": "B2", "values": [
      {"measurement": "hGLP-1R, CRE Luc 0% HSA EC50 (pM)", "setting": "human GLP-1 receptor", "result": 5.2, "unit": "pM"},
      {"measurement": "hGLP-1R, CRE Luc 1% HSA EC50 (pM)", "setting": "human GLP-1 receptor", "result": 257, "unit": "pM"},
      {"measurement": "hGIPR, CRE Luc 0% HSA EC50 (pM)", "setting": "human GIP receptor", "result": 34.9, "unit": "pM"},
      {"measurement": "hGIPR, CRE Luc 1% HSA EC50 (pM)", "setting": "human GIP receptor", "result": 1320, "unit": "pM"}
    ]}
  ]
}
